Data on 1 protein can be found in PMC4428356, “Endophilin-A1 BAR domain interaction with arachidonyl CoA” (Frontiers in Molecular Biosciences, 2014).

Several values for one entry are separate records, joined by “and”; a condition that tells them apart may be missing. Equal values may be shown once.

As usually defined, the stoichiometry N is a count of units in the complex or per binding partner.

Series [1] concerns the molecule itself. Nature of the series: SAXS; free endophilin-A1-BAR at 2 mg/ml in buffer B (20 mM Bicine pH 9, 100 mM NaCl), 283 K; monodisperse; mass from forward scattering, Porod volume, fit with the crystallographic dimer.
Series [2] deals with the molecule itself. Nature of the series: SAXS; free endophilin-A1-BAR at 3, 4 and 6 mg/ml in buffer B (20 mM Bicine pH 9, 100 mM NaCl), 283 K; volume fractions of dimer, tetramer and a putative helical octamer fitted with OLIGOMER

B1: Endophilin-A1-BAR (residues 1-256 of mouse endophilin-A1) (domain or fragment, UniProt Q62420 1-256, looked up)
chain: MSVAGLKKQFHKATQKVSEKVGGAEGTKLDDDFKEMERKVDVTSRAVMEIMTKTIEYLQPNPASRAKLSMINTMSKIRGQEKGPGYPQAEALLAEAMLKFGRELGDDCNFGPALGEVGEAMRELSEVKDSLDMEVKQNFIDPLQNLHDKDLREIQHHLKKLEGRRLDFDYKKKRQGKIPDEELRQALEKFDESKEIAESSMFNLLEMDIEQVSQLSALVQAQLEYHKQAVQILQQVTVRLEERIRQASSQPRREYQ
notes: endophilin-A1, mouse, residues 1-256 (BAR domain with the N-terminal amphipathic helix); calculated mass of the monomer 29 kDa; Dimeric at 2 mg/ml, higher oligomers at higher concentrations; also called endophilin-A1 BAR domain; source: E. coli BL21 codon plus, purified (Ni-chelating sepharose, Superdex 200 gel filtration)
Consider B1, for which the “stoichiometry N” value in series [1] was 2; in series [2] it was 4 and 8.
